Data from the supplement of paper PMC10065799, “High-throughput profiling of sequence recognition by tyrosine kinases and SH2 domains using bacterial peptide display” (eLife, 2023).

Assays:
AncSZ = test: phosphorylation enrichment, bacterial display (enrichment ratio); higher = better substrate or ligand; peptides without Tyr show the background
Fer (mouse) = test: as above
c-Src = test: as above
c-Abl (mouse) = test: as above
MERTK = MERTK (UniProt Q12866); test: as above
EPHB2 = EPHB2 (UniProt P29323); test: as above
EPHB1 = EPHB1 (UniProt P54762); test: as above
FGFR3 = FGFR3 (UniProt P22607); test: as above
Fyn = Fyn (UniProt P06241); test: as above
FGFR1 = FGFR1 (UniProt P11362); test: as above
Jak2 = Jak2 (UniProt O60674); test: as above
Hck = Hck (UniProt P08631); test: as above
Fes = Fes (UniProt P07332); test: as above
c-Src SH2 = test: SH2 binding enrichment of the phosphorylated peptide, bacterial display (enrichment ratio); higher = better substrate or ligand; peptides without Tyr show the background
Grb2 SH2 = Grb2 SH2 (UniProt P62993); test: as above
SHP2-C SH2 = test: as above
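For SH2 binding enrichment of the phosphorylated peptide, bacterial display in this document: peptide library displayed on the E. coli surface as eCPX fusions, selected cells deep-sequenced, score is each peptide's frequency after selection divided by its frequency in the input.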
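For phosphorylation enrichment, bacterial display in this document: 11-residue human phosphosite peptides and single-mutation variants displayed on the E. coli surface, counted by deep sequencing, each peptide's frequency after selection divided by its frequency in the unselected input library; frequency after pTyr selection over input frequency; kinase dosed for 20-30% of maximal phosphorylation in three min.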

Sequence of Hck (P08631 whole entry, looked up): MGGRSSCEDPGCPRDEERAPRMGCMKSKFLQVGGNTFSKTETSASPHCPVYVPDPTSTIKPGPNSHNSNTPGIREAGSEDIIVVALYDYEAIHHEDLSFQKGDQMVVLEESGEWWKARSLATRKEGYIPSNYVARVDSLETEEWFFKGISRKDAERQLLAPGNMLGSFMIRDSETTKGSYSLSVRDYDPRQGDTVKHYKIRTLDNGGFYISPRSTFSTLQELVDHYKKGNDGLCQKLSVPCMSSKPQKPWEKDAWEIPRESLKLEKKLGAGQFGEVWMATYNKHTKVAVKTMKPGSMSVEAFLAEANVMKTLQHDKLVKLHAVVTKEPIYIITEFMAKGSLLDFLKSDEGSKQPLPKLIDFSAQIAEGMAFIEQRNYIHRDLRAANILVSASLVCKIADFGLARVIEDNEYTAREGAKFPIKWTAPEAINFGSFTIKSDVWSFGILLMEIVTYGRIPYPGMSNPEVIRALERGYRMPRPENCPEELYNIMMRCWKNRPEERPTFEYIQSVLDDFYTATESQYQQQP
Sequence of EPHB2 (P29323 whole entry, looked up): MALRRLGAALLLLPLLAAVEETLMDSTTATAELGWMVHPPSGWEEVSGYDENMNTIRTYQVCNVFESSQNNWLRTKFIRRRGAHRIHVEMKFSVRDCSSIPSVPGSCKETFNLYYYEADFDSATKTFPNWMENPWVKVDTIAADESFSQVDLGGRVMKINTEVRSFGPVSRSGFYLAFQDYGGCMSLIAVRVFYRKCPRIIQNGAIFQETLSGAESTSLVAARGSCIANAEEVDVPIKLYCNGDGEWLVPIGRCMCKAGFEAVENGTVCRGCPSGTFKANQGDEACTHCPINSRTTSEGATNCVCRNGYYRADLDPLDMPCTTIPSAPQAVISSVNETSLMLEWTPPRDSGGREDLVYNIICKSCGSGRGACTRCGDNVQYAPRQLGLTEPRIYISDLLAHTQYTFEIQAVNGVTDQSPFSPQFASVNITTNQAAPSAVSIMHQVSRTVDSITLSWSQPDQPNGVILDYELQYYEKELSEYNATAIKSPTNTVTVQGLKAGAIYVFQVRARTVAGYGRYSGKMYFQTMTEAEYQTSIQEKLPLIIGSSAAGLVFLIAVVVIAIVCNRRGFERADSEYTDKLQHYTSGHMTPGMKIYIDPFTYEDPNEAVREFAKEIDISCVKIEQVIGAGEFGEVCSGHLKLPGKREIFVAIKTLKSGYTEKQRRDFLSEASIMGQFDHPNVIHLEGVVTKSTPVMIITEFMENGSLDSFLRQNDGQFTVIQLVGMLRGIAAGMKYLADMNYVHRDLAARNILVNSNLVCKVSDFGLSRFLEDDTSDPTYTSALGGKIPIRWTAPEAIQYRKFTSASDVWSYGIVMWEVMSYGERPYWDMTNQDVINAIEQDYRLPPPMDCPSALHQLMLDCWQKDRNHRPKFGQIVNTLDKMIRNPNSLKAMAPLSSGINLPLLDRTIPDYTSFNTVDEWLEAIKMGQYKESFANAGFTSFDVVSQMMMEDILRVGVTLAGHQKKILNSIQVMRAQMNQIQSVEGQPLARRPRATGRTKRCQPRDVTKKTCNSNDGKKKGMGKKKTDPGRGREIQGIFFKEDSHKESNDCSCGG
Sequence of FGFR1 (P11362 whole entry, looked up): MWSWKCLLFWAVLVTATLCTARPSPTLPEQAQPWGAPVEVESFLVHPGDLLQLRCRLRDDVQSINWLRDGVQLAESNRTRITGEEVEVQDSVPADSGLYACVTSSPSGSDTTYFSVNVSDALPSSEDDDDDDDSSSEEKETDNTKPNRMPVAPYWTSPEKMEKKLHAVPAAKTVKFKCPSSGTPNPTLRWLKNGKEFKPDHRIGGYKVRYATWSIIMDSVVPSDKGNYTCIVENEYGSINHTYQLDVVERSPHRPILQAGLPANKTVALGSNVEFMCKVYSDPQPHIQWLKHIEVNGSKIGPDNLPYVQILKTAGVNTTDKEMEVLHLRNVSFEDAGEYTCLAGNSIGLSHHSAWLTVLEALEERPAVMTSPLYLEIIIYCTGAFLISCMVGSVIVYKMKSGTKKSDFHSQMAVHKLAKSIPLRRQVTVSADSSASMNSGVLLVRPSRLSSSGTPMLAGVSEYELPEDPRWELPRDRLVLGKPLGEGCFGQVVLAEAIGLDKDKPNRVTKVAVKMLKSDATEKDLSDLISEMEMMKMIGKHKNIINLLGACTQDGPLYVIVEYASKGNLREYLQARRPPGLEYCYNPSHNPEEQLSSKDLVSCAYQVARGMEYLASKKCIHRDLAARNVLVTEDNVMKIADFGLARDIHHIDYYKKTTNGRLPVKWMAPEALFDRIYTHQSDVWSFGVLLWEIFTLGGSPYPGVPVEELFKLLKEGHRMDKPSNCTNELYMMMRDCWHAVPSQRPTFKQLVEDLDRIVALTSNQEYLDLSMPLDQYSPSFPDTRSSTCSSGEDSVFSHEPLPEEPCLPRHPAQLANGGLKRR
Sequence of Fyn (P06241 whole entry, looked up): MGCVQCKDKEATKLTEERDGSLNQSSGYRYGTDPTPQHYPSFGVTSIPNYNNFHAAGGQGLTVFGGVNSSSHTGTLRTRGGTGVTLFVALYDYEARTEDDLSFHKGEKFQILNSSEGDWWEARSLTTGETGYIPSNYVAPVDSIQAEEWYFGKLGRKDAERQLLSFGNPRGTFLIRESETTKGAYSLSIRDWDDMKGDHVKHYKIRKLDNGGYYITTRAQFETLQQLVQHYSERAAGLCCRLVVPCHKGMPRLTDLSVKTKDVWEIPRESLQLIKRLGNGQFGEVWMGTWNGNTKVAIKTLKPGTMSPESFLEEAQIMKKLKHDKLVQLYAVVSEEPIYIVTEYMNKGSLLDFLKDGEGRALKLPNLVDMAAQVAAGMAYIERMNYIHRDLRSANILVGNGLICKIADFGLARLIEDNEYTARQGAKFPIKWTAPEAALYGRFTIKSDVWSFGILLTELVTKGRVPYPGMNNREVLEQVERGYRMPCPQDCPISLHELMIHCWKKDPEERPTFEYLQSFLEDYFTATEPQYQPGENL
Sequence of Fes (P07332 whole entry, looked up): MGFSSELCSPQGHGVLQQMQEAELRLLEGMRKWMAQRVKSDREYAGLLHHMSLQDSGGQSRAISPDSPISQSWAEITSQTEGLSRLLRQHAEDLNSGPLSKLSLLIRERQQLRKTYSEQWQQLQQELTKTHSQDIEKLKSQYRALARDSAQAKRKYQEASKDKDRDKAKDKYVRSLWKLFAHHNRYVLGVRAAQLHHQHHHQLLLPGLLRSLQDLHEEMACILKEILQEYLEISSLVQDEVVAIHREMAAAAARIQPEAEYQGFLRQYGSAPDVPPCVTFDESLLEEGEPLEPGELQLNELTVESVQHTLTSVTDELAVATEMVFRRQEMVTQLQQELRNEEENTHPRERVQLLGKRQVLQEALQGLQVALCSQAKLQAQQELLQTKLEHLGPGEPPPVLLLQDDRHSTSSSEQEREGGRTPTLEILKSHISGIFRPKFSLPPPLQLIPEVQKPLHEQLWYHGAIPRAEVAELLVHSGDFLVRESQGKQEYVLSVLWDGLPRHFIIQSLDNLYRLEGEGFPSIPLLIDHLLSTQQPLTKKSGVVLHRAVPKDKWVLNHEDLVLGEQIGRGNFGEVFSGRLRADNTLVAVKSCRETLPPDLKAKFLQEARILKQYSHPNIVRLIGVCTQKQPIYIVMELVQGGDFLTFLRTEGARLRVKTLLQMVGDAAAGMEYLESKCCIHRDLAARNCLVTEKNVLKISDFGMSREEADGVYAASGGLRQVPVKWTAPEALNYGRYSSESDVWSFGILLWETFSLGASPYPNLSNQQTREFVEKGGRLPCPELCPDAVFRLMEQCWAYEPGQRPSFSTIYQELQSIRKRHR
Sequence of MERTK (Q12866 whole entry, looked up): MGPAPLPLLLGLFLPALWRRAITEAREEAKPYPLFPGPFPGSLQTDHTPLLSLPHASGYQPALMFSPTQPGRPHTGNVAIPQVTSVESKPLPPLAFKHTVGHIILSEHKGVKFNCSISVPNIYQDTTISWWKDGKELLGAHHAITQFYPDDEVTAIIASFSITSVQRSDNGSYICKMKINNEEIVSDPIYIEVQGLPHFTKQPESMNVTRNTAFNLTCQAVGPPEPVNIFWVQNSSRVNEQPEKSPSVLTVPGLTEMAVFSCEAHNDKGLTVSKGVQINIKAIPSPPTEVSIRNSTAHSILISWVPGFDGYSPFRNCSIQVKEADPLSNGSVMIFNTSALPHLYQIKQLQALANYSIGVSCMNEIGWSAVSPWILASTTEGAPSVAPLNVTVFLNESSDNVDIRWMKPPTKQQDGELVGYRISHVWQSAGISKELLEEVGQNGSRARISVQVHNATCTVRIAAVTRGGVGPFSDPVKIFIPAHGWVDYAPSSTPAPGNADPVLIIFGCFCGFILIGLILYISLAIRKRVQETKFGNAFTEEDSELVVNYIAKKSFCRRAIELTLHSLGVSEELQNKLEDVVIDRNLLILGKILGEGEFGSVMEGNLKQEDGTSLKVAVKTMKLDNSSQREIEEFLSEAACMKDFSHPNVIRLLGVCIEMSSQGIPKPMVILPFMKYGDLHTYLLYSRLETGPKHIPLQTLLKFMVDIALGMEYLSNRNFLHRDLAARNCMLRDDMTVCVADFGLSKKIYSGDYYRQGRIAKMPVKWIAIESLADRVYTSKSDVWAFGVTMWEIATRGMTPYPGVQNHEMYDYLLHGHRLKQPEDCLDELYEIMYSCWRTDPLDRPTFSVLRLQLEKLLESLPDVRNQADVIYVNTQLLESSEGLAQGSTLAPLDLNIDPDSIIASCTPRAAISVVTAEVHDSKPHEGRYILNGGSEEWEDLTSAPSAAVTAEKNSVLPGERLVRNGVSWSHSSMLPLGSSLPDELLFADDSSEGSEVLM

| Sequence | SH2 binding enrichment (c-Src SH2) | SH2 binding enrichment (Grb2 SH2) | SH2 binding enrichment (SHP2-C SH2) | phosphorylation enrichment (AncSZ) | phosphorylation enrichment (Fer (mouse)) | phosphorylation enrichment (c-Src) | phosphorylation enrichment (c-Abl (mouse)) | phosphorylation enrichment (MERTK) | phosphorylation enrichment (EPHB2) | phosphorylation enrichment (EPHB1) | phosphorylation enrichment (FGFR3) | phosphorylation enrichment (Fyn) | phosphorylation enrichment (FGFR1) | phosphorylation enrichment (Jak2) | phosphorylation enrichment (Hck) | phosphorylation enrichment (Fes) |
| --- | --- | --- | --- | --- | --- | --- | --- | --- | --- | --- | --- | --- | --- | --- | --- | --- |
| LPSKDYAEVRR [HP_Y272_G276R] | 1.72 | 0.965 | 1.31 | 0.598 | 0.419 | 0.832 | 1.75 | 0.361 | 0.638 | 1.48 | 0.865 | 0.559 | 0.712 | 0.539 | 0.7 | 0.832 |
| EGWQVYRLGAR [MISP_Y95] | 0.515 | 0.901 | 0.662 | 0.9 | 0.396 | 4.5 | 0.625 | 0.423 | 0.439 | 0.493 | 0.607 | 2.59 | 0.5 | 0.697 | 1.12 | 0.857 |
| ILTLKYPIERG [ACTA1_Y71_H75R] | 0.691 | 0.901 | 1.01 | 0.669 | 0.407 | 0.479 | 0.581 | 0.442 | 0.663 | 0.542 | 0.655 | 0.554 | 0.572 | 0.675 | 0.49 | 0.812 |
| ISDDKYGRIRL [ARCN1_Y310] | 0.434 | 0.806 | 0.639 | 0.484 | 0.312 | 0.56 | 0.433 | 0.325 | 1.04 | 0.357 | 0.357 | 0.434 | 0.407 | 0.419 | 0.454 | 0.501 |
| QRRNVYFFSFL [PTEN_Y176_Y174N_YF] | 0.92 | 1.13 | 1.8 | 1.11 | 0.398 | 0.67 | 0.509 | 0.5 | 0.475 | 0.649 | 0.728 | 1.15 | 0.562 | 1.13 | 0.34 | 1.42 |
| RMQLPYDSTWE [PDGFRB_Y589_P584R] | 0.91 | 0.445 | 0.747 | 1.23 | 0.434 | 0.996 | 0.913 | 0.447 | 0.704 | 0.76 | 0.963 | 0.851 | 0.779 | 1.17 | 0.764 | 1.33 |
| ERWLKYFPIEQ [HS3ST5_Y244] | 0.729 | 1.25 | 1.05 | 1.05 | 0.566 | 0.288 | 0.624 | 0.451 | 0.566 | 0.401 | 0.798 | 0.361 | 0.452 | 0.855 | 0.436 | 1.27 |
| GEDLSYGDVPP [IRS1_Y151] | 0.529 | 0.806 | 0.732 | 1.22 | 0.709 | 0.482 | 0.765 | 0.463 | 0.534 | 0.624 | 0.84 | 0.639 | 0.588 | 0.995 | 0.556 | 1.28 |
| PLFKIYVAELI [MRPL28_Y230] | 0.574 | 0.82 | 0.634 | 2.14 | 0.978 | 0.791 | 0.947 | 0.707 | 0.772 | 0.919 | 1.54 | 0.658 | 0.806 | 1.71 | 0.738 | 2.35 |
| RCYVYYYSYLL [PTEN_Y177_R173C] | 0.407 | 0.668 | 0.51 | 1.42 | 0.86 | 1.36 | 1.71 | 1.01 | 0.936 | 0.82 | 1.64 | 0.787 | 1.35 | 2.13 | 1.08 | 2 |
| SDYYAYSPVRE [H6PD_Y449] | 1.13 | 1.06 | 1.48 | 6.22 | 12.9 | 7.18 | 12.9 | 10.7 | 23.7 | 17.5 | 14.8 | 9.64 | 16.3 | 11.2 | 8.79 | 0.832 |
| SRDDFYETIAM [NPY1R_Y347_D346Y_YF] | 0.916 | 0.947 | 0.73 | 1.3 | 7.71 | 1.06 | 0.773 | 0.826 | 0.68 | 1.02 | 0.871 | 1.44 | 0.5 | 1.23 | 2.04 | 1.21 |
| ATCKAYGQALA [TKT_Y321_R318C] | 0.453 | 0.899 | 0.631 | 0.753 | 0.484 | 0.493 | 0.568 | 0.419 | 0.446 | 0.523 | 0.573 | 0.424 | 0.445 | 0.645 | 0.431 | 0.73 |
| PPPELYFVKVD [TERT_Y707] | 0.534 | 1.18 | 1.04 | 1.76 | 0.626 | 1.55 | 1.19 | 2.69 | 0.49 | 0.629 | 1.28 | 0.962 | 0.638 | 2.84 | 1.4 | 1.81 |
| SHNELYFEAAE [VANGL1_Y344_E347A_YF] | 0.544 | 0.763 | 0.614 | 1.11 | 0.476 | 0.522 | 0.624 | 0.543 | 0.733 | 0.509 | 1.1 | 0.591 | 1.13 | 0.781 | 0.656 | 1.04 |
| KDHRDYKYQPR [SOX9_Y172_P170R] | 1.22 | 1.26 | 1.08 | 0.534 | 0.445 | 0.426 | 0.784 | 0.456 | 0.424 | 0.397 | 0.514 | 0.61 | 0.482 | 0.779 | 0.489 | 0.864 |
| KNRDVYSSDFF [USP24_Y2134_YF] | 0.588 | 0.916 | 0.55 | 0.651 | 0.429 | 0.952 | 0.752 | 3.39 | 1.73 | 1.69 | 0.544 | 0.833 | 0.718 | 0.693 | 0.832 | 0.828 |
| FFVVEYRNQKP [MUC17_Y4332_D4334N_YF] | 0.865 | 1.46 | 1.38 | 1.32 | 0.82 | 0.608 | 1.52 | 0.413 | 0.841 | 0.795 | 0.98 | 0.623 | 0.581 | 1.55 | 0.687 | 1.65 |

The next lines start with results.

| SH2 binding enrichment (c-Src SH2) | SH2 binding enrichment (Grb2 SH2) | SH2 binding enrichment (SHP2-C SH2) | Sequence | phosphorylation enrichment (AncSZ) | phosphorylation enrichment (Fer (mouse)) | phosphorylation enrichment (c-Src) | phosphorylation enrichment (c-Abl (mouse)) | phosphorylation enrichment (MERTK) | phosphorylation enrichment (EPHB2) | phosphorylation enrichment (EPHB1) | phosphorylation enrichment (FGFR3) | phosphorylation enrichment (Fyn) | phosphorylation enrichment (FGFR1) | phosphorylation enrichment (Jak2) | phosphorylation enrichment (Hck) | phosphorylation enrichment (Fes) |
| --- | --- | --- | --- | --- | --- | --- | --- | --- | --- | --- | --- | --- | --- | --- | --- | --- |
| 0.825 | 1.13 | 0.884 | KKFPDYIQIAR [SGMS2_Y59_M64R_YF] | 0.848 | 0.399 | 0.488 | 0.657 | 0.421 | 0.649 | 3.85 | 2.26 | 0.432 | 4.29 | 1.15 | 0.478 | 0.713 |
| 0.692 | 0.89 | 0.906 | LTSKPYAFTAQ [NDUFS1_Y236_R241Q] | 0.542 | 0.524 | 0.345 | 0.521 | 0.411 | 0.471 | 0.469 | 0.371 | 0.489 | 0.445 | 0.625 | 0.363 | 0.696 |
| 1.65 | 0.662 | 0.761 | PDGHEYIFVDP [PDGFRA_Y572_YF] | 2.01 | 0.576 | 0.495 | 0.466 | 0.311 | 0.719 | 0.644 | 1.99 | 0.712 | 2.86 | 0.73 | 0.54 | 1.04 |
| 2.93 | 0.71 | 0.893 | HNMPIYEGYAL [ACTA1_Y168_V165M] | 1.3 | 17.4 | 10.4 | 11.3 | 11 | 25.5 | 19.7 | 0.654 | 13.1 | 0.465 | 0.831 | 13.5 | 2.64 |
| 0.406 | 0.663 | 0.488 | CSRRFYQLTKL [AR_Y858] | 0.79 | 0.468 | 0.527 | 0.508 | 0.448 | 0.548 | 0.407 | 0.528 | 0.462 | 0.455 | 0.698 | 0.507 | 0.718 |
| 1.11 | 5.48 | 0.585 | YQNGMYGLHQD [SGSH_Y89_H84Y] | 0.874 | 0.55 | 0.957 | 0.748 | 0.566 | 0.687 | 0.487 | 0.631 | 0.751 | 0.605 | 0.712 | 1 | 0.808 |
| 0.606 | 0.628 | 0.412 | QRRLIYRCQVG [NR2E3_Y81_R76Q] | 0.968 | 0.643 | 0.569 | 0.595 | 0.652 | 0.728 | 0.622 | 0.845 | 0.764 | 0.579 | 1.03 | 0.629 | 0.861 |
| 0.735 | 0.762 | 0.841 | ISDNAYQFMLT [MYH7_Y162_YF] | 1.22 | 5.75 | 0.807 | 1.09 | 0.883 | 0.526 | 0.662 | 1.51 | 0.654 | 1.83 | 0.957 | 0.684 | 1.19 |
| 0.555 | 0.649 | 0.484 | GRLGEYDIDEV [SMS_Y134_V132G] | 1.3 | 0.688 | 0.643 | 0.881 | 0.494 | 0.859 | 0.909 | 1 | 0.789 | 0.551 | 1.27 | 0.647 | 1.45 |
| 0.944 | 1.17 | 0.873 | RVILRYVNPGN [LAMA3_Y791_T796N] | 1.47 | 0.609 | 0.75 | 1.61 | 0.709 | 0.711 | 0.836 | 1.12 | 0.617 | 0.614 | 1.79 | 0.775 | 2.02 |
| 1.2 | 1.6 | 1.43 | YPKAHYHWLVL [APTX_Y214_R213H] | 0.823 | 0.571 | 0.487 | 0.846 | 0.61 | 0.482 | 0.505 | 1.94 | 0.368 | 2.54 | 1.16 | 0.501 | 1.15 |
| 0.834 | 0.726 | 0.576 | YYSSEYHCVGG [CTSC_Y345_Y347C] | 3.84 | 1.26 | 3.66 | 6.69 | 8.36 | 8.59 | 7.69 | 9.28 | 2.49 | 11.5 | 3.05 | 2.58 | 1.04 |
| 0.564 | 1.14 | 1.04 | VQDPAYLRDID [OPRK1_Y369] | 1.16 | 0.465 | 0.425 | 0.905 | 0.468 | 0.657 | 0.45 | 0.708 | 0.425 | 0.533 | 1.24 | 0.567 | 1.13 |
| 0.508 | 0.806 | 0.636 | AEYGLYGAMVR [VSX2_Y222] | 0.99 | 2.03 | 5.06 | 0.908 | 1.97 | 2.5 | 0.824 | 0.604 | 7.64 | 0.456 | 0.675 | 6.91 | 0.786 |
| 0.679 | 1.15 | 0.979 | MKKKIYAMGGG [GAN_Y424] | 0.397 | 0.389 | 0.393 | 0.519 | 0.432 | 0.302 | 0.335 | 0.341 | 0.297 | 0.376 | 0.39 | 0.414 | 0.465 |
